Assay results: IntAct's records for PubMed 25914052

B1: General negative regulator of transcription subunit 4 (Saccharomyces cerevisiae), P34909 (parent)
chain: MMNPHVQENLQAIHNALSNFDTSFLSEDEEDYCPLCIEPMDITDKNFFPCPCGYQICQFCYNNIRQNPELNGRCPACRRKYDDENVRYVTLSPEELKMERAKLARKEKERKHREKERKENEYTNRKHLSGTRVIQKNLVYVVGINPPVPYEEVAPTLKSEKYFGQYGKINKIVVNRKTPHSNNTTSEHYHHHSPGYGVYITFGSKDDAARCIAQVDGTYMDGRLIKAAYGTTKYCSSYLRGLPCPNPNCMFLHEPGEEADSFNKRELHNKQQAQQQSGGTAFTRSGIHNNISTSTAGSNTNLLSENFTGTPSPAAMRAQLHHDSHTNAGTPVLTPAPVPAGSNPWGVTQSATPVTSINLSKNSSSINLPTLNDSLGHHTTPTTENTITSTTTTTNTNATSHSHGSKKKQSLAAEEYKDPYDALGNAVDFLDARLHSLSNYQKRPISIKSNIIDEETYKKYPSLFSWDKIEASKKSDNTLANKLVEILAIKPIDYTASVVQFLQSVNVGVNDNITITDNTKTPTQPIRLQTVSQQIQPPLNVSTPPPGIFGPQHKVPIQQQQMGDTSSRNSSDLLNQLINGRKIIAGN

Variants of: B1
Settings: with not1_yeast CDC39, P25655
Chain of not1_yeast CDC39, P25655 (P25655 whole entry): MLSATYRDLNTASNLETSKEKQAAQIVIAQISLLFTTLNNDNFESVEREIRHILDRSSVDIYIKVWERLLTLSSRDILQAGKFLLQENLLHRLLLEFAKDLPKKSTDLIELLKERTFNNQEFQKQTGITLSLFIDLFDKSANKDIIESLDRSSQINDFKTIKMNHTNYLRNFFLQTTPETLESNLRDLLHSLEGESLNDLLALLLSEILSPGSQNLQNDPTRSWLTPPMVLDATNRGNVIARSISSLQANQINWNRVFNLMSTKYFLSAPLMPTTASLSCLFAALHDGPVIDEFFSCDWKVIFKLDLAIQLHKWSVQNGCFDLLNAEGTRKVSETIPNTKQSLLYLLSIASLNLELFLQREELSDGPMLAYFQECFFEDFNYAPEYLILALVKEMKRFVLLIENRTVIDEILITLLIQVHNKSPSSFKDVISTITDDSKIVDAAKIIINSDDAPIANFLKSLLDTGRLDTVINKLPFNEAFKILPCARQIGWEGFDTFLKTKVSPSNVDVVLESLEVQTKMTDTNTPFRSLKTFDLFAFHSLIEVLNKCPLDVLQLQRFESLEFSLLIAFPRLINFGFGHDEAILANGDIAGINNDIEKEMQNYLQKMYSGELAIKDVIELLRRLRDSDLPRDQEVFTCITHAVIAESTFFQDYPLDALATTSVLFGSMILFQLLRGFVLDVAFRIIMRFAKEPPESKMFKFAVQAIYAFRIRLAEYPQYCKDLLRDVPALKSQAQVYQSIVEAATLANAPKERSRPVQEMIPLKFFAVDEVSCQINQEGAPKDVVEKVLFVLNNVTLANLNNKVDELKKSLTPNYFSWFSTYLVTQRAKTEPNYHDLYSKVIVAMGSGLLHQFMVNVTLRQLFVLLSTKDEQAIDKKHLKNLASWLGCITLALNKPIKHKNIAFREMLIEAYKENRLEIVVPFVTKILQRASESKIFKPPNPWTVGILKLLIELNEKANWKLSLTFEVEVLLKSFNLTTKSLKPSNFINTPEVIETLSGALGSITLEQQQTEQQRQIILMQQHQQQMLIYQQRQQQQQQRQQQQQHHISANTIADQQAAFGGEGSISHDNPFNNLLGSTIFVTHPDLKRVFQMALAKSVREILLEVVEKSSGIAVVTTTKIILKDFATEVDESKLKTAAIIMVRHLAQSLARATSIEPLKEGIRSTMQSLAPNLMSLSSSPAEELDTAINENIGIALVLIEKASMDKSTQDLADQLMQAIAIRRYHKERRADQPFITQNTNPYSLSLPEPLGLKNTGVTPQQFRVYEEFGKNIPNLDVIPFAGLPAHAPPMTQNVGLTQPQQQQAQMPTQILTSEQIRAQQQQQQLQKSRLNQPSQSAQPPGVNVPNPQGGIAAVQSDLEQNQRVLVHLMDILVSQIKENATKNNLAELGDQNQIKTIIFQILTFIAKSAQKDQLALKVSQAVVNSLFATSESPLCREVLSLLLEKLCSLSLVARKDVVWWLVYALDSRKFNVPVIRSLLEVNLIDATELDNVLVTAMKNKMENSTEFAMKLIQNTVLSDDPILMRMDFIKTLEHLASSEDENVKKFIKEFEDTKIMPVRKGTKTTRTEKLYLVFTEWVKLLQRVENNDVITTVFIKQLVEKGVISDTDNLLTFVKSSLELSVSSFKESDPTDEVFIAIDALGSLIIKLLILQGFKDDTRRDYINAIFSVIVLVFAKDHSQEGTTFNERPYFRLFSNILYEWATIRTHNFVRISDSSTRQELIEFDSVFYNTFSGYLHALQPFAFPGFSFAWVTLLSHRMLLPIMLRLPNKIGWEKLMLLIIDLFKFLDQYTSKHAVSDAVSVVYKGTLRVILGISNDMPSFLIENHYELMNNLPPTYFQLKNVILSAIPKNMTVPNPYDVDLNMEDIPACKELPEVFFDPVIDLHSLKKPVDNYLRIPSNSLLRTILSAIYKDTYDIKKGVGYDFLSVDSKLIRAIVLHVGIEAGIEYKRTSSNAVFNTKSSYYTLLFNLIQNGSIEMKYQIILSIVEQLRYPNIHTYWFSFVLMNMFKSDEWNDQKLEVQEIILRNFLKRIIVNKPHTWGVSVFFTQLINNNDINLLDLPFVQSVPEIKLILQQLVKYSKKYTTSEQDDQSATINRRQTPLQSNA

| Variant | effect of a mutation on the interaction |
| --- | --- |
| MMNPHVQENLQAIHNALSNFDTSFLSEDEEDYCPLCIEPMDITDKNFFPCPCGYQICQFCYNNIRQNPELNGRCPACRRKYDDENVRYVTLSPEELKMERAKLARKEKERKHREKERKENEYTNRKHLSGTRVIQKNLVYVVGINPPVPYEEVAPTLKSEKYFGQYGKINKIVVNRKTPHSNNTTSEHYHHHSPGYGVYITFGSKDDAARCIAQVDGTYMDGRLIKAAYGTTKYCSSYLRGLPCPNPNCMFLHEPGEEADSFNKRELHNKQQAQQQSGGTAFTRSGIHNNISTSTAGSNTNLLSENFTGTPSPAAMRAQLHHDSHTNAGTPVLTPAPVPAGSNPWGVTQSATPVTSINLSKNSSSINLPTLNDSLGHHTTPTTENTITSTTTTTNTNATSHSHGSKKKQSLAAEEYKDPYDALGNAVDFLDARLHSLSNYQKRPISIKSNIIDEETYKKYPSEESWDKIEASKKSDNTLANKLVEILAIKPIDYTASVVQFLQSVNVGVNDNITITDNTKTPTQPIRLQTVSQQIQPPLNVSTPPPGIFGPQHKVPIQQQQMGDTSSRNSSDLLNQLINGRKIIAGN [L463E;F464E] | disrupting interaction |
| MMNPHVQENLQAIHNALSNFDTSFLSEDEEDYCPLCIEPMDITDKNFFPCPCGYQICQFCYNNIRQNPELNGRCPACRRKYDDENVRYVTLSPEELKMERAKLARKEKERKHREKERKENEYTNRKHLSGTRVIQKNLVYVVGINPPVPYEEVAPTLKSEKYFGQYGKINKIVVNRKTPHSNNTTSEHYHHHSPGYGVYITFGSKDDAARCIAQVDGTYMDGRLIKAAYGTTKYCSSYLRGLPCPNPNCMFLHEPGEEADSFNKRELHNKQQAQQQSGGTAFTRSGIHNNISTSTAGSNTNLLSENFTGTPSPAAMRAQLHHDSHTNAGTPVLTPAPVPAGSNPWGVTQSATPVTSINLSKNSSSINLPTLNDSLGHHTTPTTENTITSTTTTTNTNATSHSHGSKKKQSLAAEEYKDPYDALGNAVDFLDARLHSLSNYQKRPISIKSNIIDEETYKKYPSLESEDKIEASKKSDNTLANKLVEILAIKPIDYTASVVQFLQSVNVGVNDNITITDNTKTPTQPIRLQTVSQQIQPPLNVSTPPPGIFGPQHKVPIQQQQMGDTSSRNSSDLLNQLINGRKIIAGN [F464E;W466E] | disrupting interaction |
